From patent US20260021197A1, “NANOPARTICLES AND PEPTIDES FOR THE DELIVERY OF CARGOS TO CHONDROCYTES” (4BASEBIO UK LTD, priority 2022, published 2026)

Experiments:
[1] = Biophysical characterisation of nanoparticles by dynamic light scattering (size, PDI); type: physicochemical
Method: The size in nm by Dynamic Light Scattering (DLS), zeta potential in mV by Electrophoretic Light Scattering (ELS), and concentration of particles per ml by Multi-Angle Dynamic Light Scattering (MADLS) of the closed linear DNA/mRNA-lipid-peptide nanoparticles was determined using the Zetasizer Ultra (Malvern). Complexes were prepared as before, except formulated in nuclease-free water rather than Opti-MEM. Samples containing 0.7 μg hpDNA were diluted in 1 ml for analysis.

[2] = Ribogreen encapsulation efficiency assay; type: physicochemical; settings: FIG. 4; mRNA:lipid:peptide nanoparticles at N/P ratio 3.98
Method: Encapsulation efficiency (EE %) was measured using Quant-iT™ RiboGreen™ RNA Assay Kit (Invitrogen™, Thermo Fisher Scientific, Waltham, MA, USA). Briefly, mRNA was mixed with RiboGreen™ in a total volume of 100 ul TE buffer (10 mM Tris-HCl, 1 mM EDTA, pH 7.5) per well of a 96-well plate and incubated for 10 minutes at RT in the absence of light. Lipid and peptide components were each diluted in a volume of 50 ul TE buffer before mixing thoroughly with the mRNA-Ribogreen via pipette. Nanocomplexes were incubated for 30 minutes at RT in the absence of light. Encapsulation efficiency was measured by quantifying the fluorescence (λem=520 nm, λex=480 nm) of RNA encapsulated in nanoparticles vs. the fluorescence of naked mRNA complexed with Ribogreen™ reagent using a fluorimeter (ClarioStar, BMG Labtech).

[3] = tested on: primary human chondrocytes; assay: Transfection of primary human chondrocytes, GFP expression by flow cytometry; type: cell-based; settings: closed linear DNA:lipid:peptide nanoparticles, 48 h post-transfection
Method: (§1) Peptides identified via phage display with affinity toward primary human chondrocytes, and peptides identified in the literature with desirable chondrocyte binding characteristics were synthesised via solid-phase peptide synthetic chemistry in various conformations. A sixteen-lysine tail group was attached using standard synthesis methods (amsbio, UK).
Transfections in primary human chondrocyte cells were performed with a range of peptide:liposome:nucleic acid cargo mass ratios and N/P ratios. Transfections were performed in a 96-well plate at a density of 2000 cells per well seeded 5 days prior to transfection. Charge and mass ratio of components in the transfection complex varied; DNA and mRNA were maintained at a constant mass of 300 ng per well. […] The mass ratio of closed linear DNA:lipid and mRNA:lipid was maintained at 1:3, while the chondrocyte-cell binding peptides were in some cases altered.
(§2) Transfection complexes were formed via electrostatic interaction by vigorous pipetting, before diluting in a final volume of 200 ul per well, with a DNA concentration of 1.5 ng/ul. All dilutions were performed with OptiMEM reduced serum media. Controls included cells with no transfection complexes added (OptiMEM only), along with liposomes encapsulating nucleic acid cargo without peptide.
Transfection complexes were incubated for 30 min at RT before adding to cells. All conditions were performed in triplicate. Cells were incubated at 37° C. for 4 hours, before replacing media with growth media. 48 h post-transfection, the cells were rinsed in PBS, before incubation in 0.05% Trypsin EDTA (Gibco) to detach the cells. 48 h post-transfection, cells were resuspended in PBS for analysis by flow cytometry using the Aligent Novocyte flow cytometer.

[4] = tested on: primary human chondrocytes; assay: Transfection of primary human chondrocytes, luciferase expression; type: cell-based; settings: FIG. 3, mRNA:lipid:peptide nanoparticles, DOTMA-DOPE 2:1 + 10% cholesterol, 4 h post-transfection
Method: as §1
Transfections in primary human chondrocyte cells were performed with a range of peptide: liposome:nucleic acid cargo mass ratios and N/P ratios. Transfections were performed in a 96-well plate at a density of 2000 cells per well seeded 5 days prior to transfection. Charge and mass ratio of components in the transfection complex varied; DNA and mRNA were maintained at a constant mass of 300 ng per well. The molar ratio of the cationic lipid DOTMA to the phospholipid DOPE was kept at 2:1 (DD 2:1), while cholesterol was added at a molar percentage of 10% of the total lipid content. The mass ratio of closed linear DNA:lipid and mRNA:lipid was maintained at 1:3, while the chondrocyte-cell binding peptides were in some cases altered.
as §2
Transfection complexes were incubated for 30 min at RT before adding to cells. All conditions were performed in triplicate. Cells were incubated at 37° C. for 4 hours, before replacing media with growth media. 48 h post-transfection for DNA and 4 h post-transfection for RNA, the cells were rinsed in PBS, before resuspension in Reporter Lysis buffer (Promega). Plates were incubated at 4° C. for 20 minutes, before −80° C. for 40 minutes. After thawing, luciferase activity was measured following injection of the luciferase assay substrate on the ClarioSTAR plus plate reader (BMG Labtech, Aylesbury, UK). Luciferase expression was normalised to protein content using Pierce BCA Protein Assay, with absorbance measured at 562 nm. Luciferase activity was expressed as Relative Light Units per mg of protein (RLU/mg).

[5] = FIG. 5, closed linear DNA, DOTMA-DOPE 2:1 + 10% cholesterol
[6] = FIG. 6, mRNA, DOTMA-DOPE 2:1 + 10% cholesterol
[7] = FIG. 1, DOTMA-DOPE 2:1 + 10% cholesterol

KKKKKKKKKKKKKKKKGARLDPTSYLRTFW [HC3 L-N]
Polydispersity Index (PDI) [1, 5]: 0.2
Polydisperse Index (PDI) [1, 6]: 0.13

KKKKKKKKKKKKKKKKGACHDSQLEALIKFMC [HC4 C-N]
Polydispersity Index (PDI) [1, 5]: 0.45

KKKKKKKKKKKKKKKKGADWRVIIPPRPSA [HC5 L-N]
encapsulation efficacy (% of mRNA encapsulated) [2]: 96.86%

KKKKKKKKKKKKKKKKGACRLDPTSYLRTFWC [HC3 C-N]
GFP expression (% of the cells expressing GFP) [3, 7]: 9%
median fluorescence intensity (MFI) [3, 7]: 1E+05
average size by DLS [1, 6]: 78 nm
Polydisperse Index (PDI) ([1]; FIG. 6 passage, printed as closed linear DNA, DOTMA-DOPE 2:1 10% cholesterol): 0.37

KKKKKKKKKKKKKKKKRVRRCDWRVIIPPRPSAC [HC5 C-C]
GFP expression (% of the cells expressing GFP) ([3]; FIG. 2, C16-DOPE 2:1 with 10% cholesterol): 24%
average size by DLS [1, 5]: 51.37 nm

KKKKKKKKKKKKKKKKGACDWRVIIPPRPSAC [HC5 C-N]
GFP expression (% of the cells expressing GFP) [3, 7]: 21%
median fluorescence intensity (MFI) [3, 7]: 1E+06
average size by DLS [1, 5]: 100 nm
luciferase expression ([4]; N/P ratio 3.48): 3.2E+11 RLU/mg protein
luciferase expression ([4]; N/P ratio 4.48): 4E+11 RLU/mg protein
luciferase expression ([4]; N/P ratio 7.48): 3.3E+11 RLU/mg protein
luciferase expression ([4]; N/P ratio 8.48): 2.5E+11 RLU/mg protein

KKKKKKKKKKKKKKKKGAHDSQLEALIKFM [HC4 L-N]
average size by DLS [1, 6]: 36.65 nm
